Experimental data published in the supplement of paper PMC11246515.
± gives the standard deviation of the averaged measurements.

Assay: total protein half-life in vivo (active degradation + dilution); higher = more stable protein
[1] = E. coli NCM3722 delta-clpP delta-lon delta-hslV, growth: N-lim chemostat, doubling time 6 h
[2] = E. coli NCM3722 delta-clpP, growth: N-lim chemostat, doubling time 6 h
[3] = E. coli NCM3722 delta-hslV, growth: N-lim chemostat, doubling time 6 h
[4] = E. coli NCM3722 delta-lon, growth: N-lim chemostat, doubling time 6 h
[5] = E. coli NCM3722 delta-smpB, growth: N-lim chemostat, doubling time 6 h
[6] = wild type E. coli NCM3722, growth: C-lim chemostat, doubling time 3 h
[7] = wild type E. coli NCM3722, growth: C-lim chemostat, doubling time 6 h
[8] = wild type E. coli NCM3722, growth: C-lim chemostat, doubling time 12 h
[9] = wild type E. coli NCM3722, growth: N-lim chemostat, doubling time 6 h
[10] = wild type E. coli NCM3722, growth: N-lim chemostat, doubling time 12 h
[11] = wild type E. coli NCM3722, growth: P-lim chemostat, doubling time 6 h
[12] = wild type E. coli NCM3722, growth: P-lim chemostat, doubling time 12 h

Sequence	total protein half-life in vivo [1]	total protein half-life in vivo [2]	total protein half-life in vivo [3]	total protein half-life in vivo [4]	total protein half-life in vivo [5]	total protein half-life in vivo [6]	total protein half-life in vivo [7]	total protein half-life in vivo [8]	total protein half-life in vivo [9]	total protein half-life in vivo [10]	total protein half-life in vivo [11]	total protein half-life in vivo [12]
MTQENEIKRPIQDLEHEPIKPLDNSEKGSKVSQALETVTTTAEKVQRQPVIAHLIRATERFNDRLGNQFGAAITYFSFLSMIPILMVSFAAGGFVLASHPMLLQDIFDKILQNISDPTLAATLKNTINTAVQQRTTVGLVGLAVALYSGINWMGNLREAIRAQSRDVWERSPQDQEKFWVKYLRDFISLIGLLIALIVTLSITSVAGSAQQMIISALHLNSIEWLKPTWRLIGLAISIFANYLLFFWIFWRLPRHRPRKKALIRGTFLAAIGFEVIKIVMTYTLPSLMKSPSGAAFGSVLGLMAFFYFFARLTLFCAAWIATAEYKDDPRMPGKTQP	4.96 ± 0.058 h	4.8 ± 0.18 h	3.99 ± 0.46 h	3.56 ± 0.56 h	4.74 ± 0.46 h	2.41 ± 0.45 h	4.07 ± 0.12 h	7.18 ± 1.4 h	4.21 ± 0.15 h	6.7 ± 0.46 h	4.02 ± 0.11 h	6.92 ± 0.24 h
MTQFTQNTAMPSSLWQYWRGLSGWNFYFLVKFGLLWAGYLNFHPLLNLVFAAFLLMPLPRYSLHRLRHWIALPIGFALFWHDTWLPGPESIMSQGSQVAGFSTDYLIDLVTRFINWQMIGAIFVLLVAWLFLSQWIRITVFVVAILLWLNVLTLAGPSFSLWPAGQPTTTVTTTGGNAAATVAATGGAPVVGDMPAQTAPPTTANLNAWLNNFYNAEAKRKSTFPSSLPADAQPFELLVINICSLSWSDIEAAGLMSHPLWSHFDIEFKNFNSATSYSGPAAIRLLRASCGQTSHTNLYQPANNDCYLFDNLSKLGFTQHLMMGHNGQFGGFLKEVRENGGMQSELMDQTNLPVILLGFDGSPVYDDTAVLNRWLDVTEKDKNSRSATFYNTLPLHDGNHYPGVSKTADYKARAQKFFDELDAFFTELEKSGRKVMVVVVPEHGGALKGDRMQVSGLRDIPSPSITDVPVGVKFFGMKAPHQGAPIVIEQPSSFLAISDLVVRVLDGKIFTEDNVDWKKLTSGLPQTAPVSENSNAVVIQYQDKPYVRLNGGDWVPYPQ	3.61 ± 0.11 h	4.03 ± 0.34 h	2.98 ± 1.2 h	3.68 ± 0.32 h	3.66 ± 0.32 h	2.602 ± 0.019 h	4.28 ± 0.59 h	8.3 ± 0.53 h	4.05 ± 0.25 h	6.43 ± 1.3 h	3.91 ± 0.42 h	6.54 ± 0.083 h
MTQLAIGKPAPLGAHYDGQGVNFTLFSAHAERVELCVFDANGQEHRYDLPGHSGDIWHGYLPDARPGLRYGYRVHGPWQPAEGHRFNPAKLLIDPCARQIDGEFKDNPLLHAGHNEPDYRDNAAIAPKCVVVVDHYDWEDDAPPRTPWGSTIIYEAHVKGLTYLHPEIPVEIRGTYKALGHPVMINYLKQLGITALELLPVAQFASEPRLQRMGLSNYWGYNPVAMFALHPAYACSPETALDEFRDAIKALHKAGIEVILDIVLNHSAELDLDGPLFSLRGIDNRSYYWIREDGDYHNWTGCGNTLNLSHPAVVDYASACLRYWVETCHVDGFRFDLAAVMGRTPEFRQDAPLFTAIQNCPVLSQVKLIAEPWDIAPGGYQVGNFPPLFAEWNDHFRDAARRFWLHYDLPLGAFAGRFAASSDVFKRNGRLPSAAINLVTAHDGFTLRDCVCFNHKHNEANGEENRDGTNNNYSNNHGKEGLGGSLDLVERRRDSIHALLTTLLLSQGTPMLLAGDEHGHSQHGNNNAYCQDNQLTWLDWSQASSGLTAFTAALIHLRKRIPALVENRWWEEGDGNVRWLNRYAQPLSTDEWQNGPKQLQILLSDRFLIAINATLEVTEIVLPAGEWHAIPPFAGEDNPVITAVWQGPAHGLCVFQR	5.66 ± 0.38 h	5.35 ± 0.093 h	5.23 ± 0.074 h	6.01 ± 0.45 h	5.62 ± 0.72 h	3.31 ± 0.7 h	5.47 ± 0.28 h	10.5 ± 0.48 h	5.46 ± 0.36 h	10.2 ± 0.7 h	6.42 ± 0.68 h	11.6 ± 1.6 h
MTQPLVGKQILIVEDEQVFRSLLDSWFSSLGATTVLAADGVDALELLGGFTPDLMICDIAMPRMNGLKLLEHIRNRGDQTPVLVISATENMADIAKALRLGVEDVLLKPVKDLNRLREMVFACLYPSMFNSRVEEEERLFRDWDAMVDNPAAAAKLLQELQPPVQQVISHCRVNYRQLVAADKPGLVLDIAALSENDLAFYCLDVTRAGHNGVLAALLLRALFNGLLQEQLAHQNQRLPELGALLKQVNHLLRQANLPGQFPLLVGYYHRELKNLILVSAGLNATLNTGEHQVQISNGVPLGTLGNAYLNQLSQRCDAWQCQIWGTGGRLRLMLSAE [P0AEV1]	3.97 ± 0.57 h	3.09 ± 0.13 h	3.094 ± 0.028 h	3.57 ± 0.32 h	2.961 ± 0.028 h	2.72 ± 0.33 h	4.34 ± 0.48 h	8.52 ± 0.76 h	3.39 ± 0.12 h	5.16 ± 0.3 h	5.53 ± 0.37 h	10.1 ± 0.53 h
MTQQPQAKYRHDYRAPDYQITDIDLTFDLDAQKTVVTAVSQAVRHGASDAPLRLNGEDLKLVSVHINDEPWTAWKEEEGALVISNLPERFTLKIINEISPAANTALEGLYQSGDALCTQCEAEGFRHITYYLDRPDVLARFTTKIIADKIKYPFLLSNGNRVAQGELENGRHWVQWQDPFPKPCYLFALVAGDFDVLRDTFTTRSGREVALELYVDRGNLDRAPWAMTSLKNSMKWDEERFGLEYDLDIYMIVAVDFFNMGAMENKGLNIFNSKYVLARTDTATDKDYLDIERVIGHEYFHNWTGNRVTCRDWFQLSLKEGLTVFRDQEFSSDLGSRAVNRINNVRTMRGLQFAEDASPMAHPIRPDMVIEMNNFYTLTVYEKGAEVIRMIHTLLGEENFQKGMQLYFERHDGSAATCDDFVQAMEDASNVDLSHFRRWYSQSGTPIVTVKDDYNPETEQYTLTISQRTPATPDQAEKQPLHIPFAIELYDNEGKVIPLQKGGHPVNSVLNVTQAEQTFVFDNVYFQPVPALLCEFSAPVKLEYKWSDQQLTFLMRHARNDFSRWDAAQSLLATYIKLNVARHQQGQPLSLPVHVADAFRAVLLDEKIDPALAAEILTLPSVNEMAELFDIIDPIAIAEVREALTRTLATELADELLAIYNANYQSEYRVEHEDIAKRTLRNACLRFLAFGETHLADVLVSKQFHEANNMTDALAALSAAVAAQLPCRDALMQEYDDKWHQNGLVMDKWFILQATSPAANVLETVRGLLQHRSFTMSNPNRIRSLIGAFAGSNPAAFHAEDGSGYLFLVEMLTDLNSRNPQVASRLIEPLIRLKRYDAKRQEKMRAALEQLKGLENLSGDLYEKITKALA	5.11 ± 0.53 h	4.45 ± 0.1 h	4.27 ± 0.086 h	4.48 ± 0.29 h	4.38 ± 0.084 h	3.05 ± 0.19 h	5.55 ± 0.11 h	10.5 ± 0.56 h	4.36 ± 0.11 h	6.63 ± 0.16 h	5.89 ± 0.069 h	11.3 ± 0.68 h
